Test results reported in article PMC3647168 (Scientific Reports, 2013).

Biological target: T1, His-DDA3 (UniProt Q6PGN9 1-363)
T1 sequence (looked up): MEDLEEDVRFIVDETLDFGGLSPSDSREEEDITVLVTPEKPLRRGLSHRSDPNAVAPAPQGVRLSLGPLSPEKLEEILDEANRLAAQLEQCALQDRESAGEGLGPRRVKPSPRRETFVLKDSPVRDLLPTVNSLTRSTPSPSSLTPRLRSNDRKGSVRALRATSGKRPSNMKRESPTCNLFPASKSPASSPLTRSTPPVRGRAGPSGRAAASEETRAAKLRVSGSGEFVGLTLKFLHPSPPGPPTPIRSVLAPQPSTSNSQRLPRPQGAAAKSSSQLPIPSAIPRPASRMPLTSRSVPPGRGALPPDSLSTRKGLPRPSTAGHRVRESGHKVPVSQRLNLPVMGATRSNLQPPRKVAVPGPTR
Experiment: pull-down

B1: GST-EB1 (natural protein, UniProt Q15691 1-268, looked up)
chain: MAVNVYSTSVTSDNLSRHDMLAWINESLQLNLTKIEQLCSGAAYCQFMDMLFPGSIALKKVKFQAKLEHEYIQNFKILQAGFKRMGVDKIIPVDKLVKGKFQDNFEFVQWFKKFFDANYDGKDYDPVAARQGQETAVAPSLVAPALNKPKKPLTSSSAAPQRPISTQRTAAAPKAGPGVVRKNPGVGNGDDEAAELMQQVNVLKLTVEDLEKERDFYFGKLRNIELICQENEGENDPVLQRIVDILYATDEGFVIPDEGGPQEEQEEY
B1: binds.
